This note sets out measurements from patent US20200317776A1 (published 2020).

Experiment [1] concerns the target human TREM2/DAP12 fusion protein (human, UniProt O43914 41-113, limits assumed). Briefly: cell-based or functional assay.
Experiment [2] deals with T1, human TREM2 expressed on cells (human, UniProt Q9NZC2 19-230).
T1 sequence: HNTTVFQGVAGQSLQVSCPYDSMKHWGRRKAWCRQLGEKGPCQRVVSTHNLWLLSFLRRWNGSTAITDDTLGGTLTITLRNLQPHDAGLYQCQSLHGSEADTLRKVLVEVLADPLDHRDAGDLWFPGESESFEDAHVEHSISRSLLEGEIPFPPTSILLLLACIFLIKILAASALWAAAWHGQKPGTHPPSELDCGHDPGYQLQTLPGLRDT
Briefly: cell-based or functional assay.

Experiment [3] deals with T1, human TREM2 expressed on cells. Briefly: FACS, hTREM2 BW cells. An excerpt: (§1) To examine cell binding of affinity matured anti-TREM2 antibodies, both primary human monocyte derived dendritic cells and recombinant, human TREM2 expressing cells were utilized. For the latter, BW5147.G.1.4 (ATCC® TIB48™) and HEK293T cells stably expressing human TREM2 together with Dap12 using viral infection were established. For primary human monocyte derived dendritic cells, human monocytes were isolated from whole blood using RosetteSep Human monocyte enrichment cocktail (Stemcell technologies) and Ficoll centrifugation per manufacturer protocols. After lysing red blood cells with ACK lysing buffer, monocytes were resuspended in complete media (RPMI, 10% FBS, Pen/Strep, L-glutamine, HEPES, non-essential amino acid, Sodium pyruvate) with 100 ng/ml human GM-CSF (hu-GMCSF) and, human IL-4 (hu-IL-4) to differentiate dendritic cells for 6 days.
(§2) Cells were harvested by trypsinization (Hek293T) or scraping (BW and dendritic cells), washed in PBS, counted and plated on 96-well U bottom plates at […] cells/well. The plates were spun at 1,400 rpm for 3 minutes and primary TREM2 or control antibodies were added in FACS buffer (PBS+2% FBS) and incubated on ice for one hour. Cells were subsequently centrifuged as before and washed thrice with FACS buffer. Cells were then incubated with anti-human PE conjugated secondary antibody (BD Biosciences) in FACS buffer for 30 minutes on ice. Cells were again washed thrice with FACS buffer and analyzed on a BD FACS Canto or an Intellicyt Flow Cytometer. Binding was measured as mean fluorescence intensity in the APC channel.

Experiment [4] has the same target. Briefly: FACS, human DCs.
Text: as §1, §2

Experiment [5] deals with T2, human TREM2 Fc fusion (entire TREM2 ECD; only one Fc arm fused to TREM2) (human, UniProt Q9NZC2 19-174).
T2 construct: also called huTREM2-Fc; recombinant hTREM2
T2 sequence: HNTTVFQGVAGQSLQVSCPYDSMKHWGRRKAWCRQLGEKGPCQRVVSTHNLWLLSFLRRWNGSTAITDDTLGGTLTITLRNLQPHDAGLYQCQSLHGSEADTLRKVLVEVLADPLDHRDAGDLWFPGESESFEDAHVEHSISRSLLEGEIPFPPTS
Briefly: BLI, Fab, monovalent. (In general: BLI is a label-free optical method that tracks binding on a fibre tip over time.)

Experiment [6] has as its target T3, cynomolgus monkey TREM2 Fc fusion (entire TREM2 ECD; only one Fc arm fused to TREM2) (cynomolgus monkey, UniProt Q9NZC2 19-174 (human entry)).
T3 construct: also called cyno TREM2-Fc
T3 chain: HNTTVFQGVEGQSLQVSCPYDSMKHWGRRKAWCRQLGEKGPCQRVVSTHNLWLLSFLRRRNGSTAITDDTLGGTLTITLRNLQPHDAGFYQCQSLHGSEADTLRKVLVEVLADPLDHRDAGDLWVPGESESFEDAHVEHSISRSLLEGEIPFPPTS
Briefly: BLI, Fab, monovalent.

Sequence of human TREM2/DAP12 fusion protein (O43914 other isoform, or with tags, fused parts or gaps limits assumed): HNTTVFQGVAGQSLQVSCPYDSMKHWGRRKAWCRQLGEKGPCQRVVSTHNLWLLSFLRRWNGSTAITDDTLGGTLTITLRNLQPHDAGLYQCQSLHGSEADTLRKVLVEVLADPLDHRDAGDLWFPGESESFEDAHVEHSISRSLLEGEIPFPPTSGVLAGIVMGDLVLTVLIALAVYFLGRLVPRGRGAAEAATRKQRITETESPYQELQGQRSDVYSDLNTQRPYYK

B1: AL2p-38 (antibody, V domains shown)
VH: QVQLVQSGAEVKKPGSSVKVSCKASGYAFSSHWMNWVRQAPGQGLEWMGRIYPGGGDTNYAQKFRGRVTITADESTSTAYMELSSLRSEDTAVYYCARLLRNQPGASYAMDYWGQGTLVTVSS
VL: GVVMTQTPLSLSVTPGQPASISCRSSRSLVHSNRYTYLHWYLQKPGQSPQLLIYKVSNRRSGVPDRFSGSGSGTDFTLKISRVEAEDVGVYYCSQSTRVPYTFGQGTKLEIK
notes: Fab and IgG formats under one id
The Kd is the free concentration of one partner at which half of the binding sites on the other are occupied at equilibrium, for simple one-to-one binding. B1: the “BW Luc assay plate bound 7.3 nM IgG, FOC” value in experiment [1] was 4.47 FOC. The “BW Luc assay soluble 7.3 nM IgG, FOC” value in experiment [1] came out at 4.98 FOC. In experiment [2], the “DC viability (AUC)” value was 786000 AUC. For the same molecule, in experiment [2], the “Mac viability (AUC)” value came out at 39000 AUC. The Kd in experiment [3] worked out at 4.79 nM; in experiment [5] it was 0.623 nM; in experiment [6] it was 0.37 nM. The molecule further returned an MFI in experiment [4] of 499 MFI.

B2: AL2p-41 (antibody, IgG1, V domains shown)
VH: QVQLVQSGAEVKKPGSSVKVSCKASGYAFSSHWMNWVRQAPGQGLEWMGRIYPGEGDTNYAQKFRGRVTITADESTSTAYMELSSLRSEDTAVYYCARLLRNQPGASYAMDYWGQGTLVTVSS
VL: GVVMTQTPLSLSVTPGQPASISCRSSRSLVHSNQYTYLHWYLQKPGQSPQLLIYKVSNRRSGVPDRFSGSGSGTDFTLKISRVEAEDVGVYYCSQSTRVPYTFGQGTKLEIK
notes: as for B1
On to B2, for which, in experiment [1], the “BW Luc assay plate bound 7.3 nM IgG, FOC” value stood at 7.61 FOC and the “BW Luc assay soluble 7.3 nM IgG, FOC” value turned out to be 2.92 FOC. In experiment [2], the “DC viability (AUC)” value is 860000 AUC and the “Mac viability (AUC)” value was found to be 80700 AUC. This molecule also returned a dissociation constant (Kd) in experiment [3] of 1.31 nM. Further, the MFI in experiment [4] is 534 MFI. Also, in experiment [5], the affinity, expressed as Kd, was 0.724 nM. For the same molecule, the dissociation constant Kd in experiment [6] stood at 0.352 nM.

B3: AL2p-43 (antibody, V domains shown)
VH: QVQLVQSGAEVKKPGSSVKVSCKASGYAFSSHWMNWVRQAPGQGLEWMGRIYPGGGDTNYARKFRGRVTITADESTSTAYMELSSLRSEDTAVYYCARLLRNQPGASYAMDYWGQGTLVTVSS
VL: GVVMTQTPLSLSVTPGQPASISCRSSRSLVHSNRYTYLHWYLQKPGQSPQLLIYKVSNRRSGVPDRFSGSGSGTDFTLKISRVEAEDVGVYYCSQSTRVPYTFGQGTKLEIK
notes: as for B1
Take B3: in experiment [1], the “BW Luc assay plate bound 7.3 nM IgG, FOC” value was 5.41 FOC. For the same molecule, the “BW Luc assay soluble 7.3 nM IgG, FOC” value in experiment [1] amounted to 8.84 FOC. Also, the results for the equilibrium dissociation constant (Kd) in experiment [3], in experiment [5] and in experiment [6] were 5.01 nM, 0.493 nM and 0.36 nM, respectively. For the same molecule, the MFI in experiment [4] amounted to 1040 MFI.

B4: AL2p-42 (antibody, V domains shown)
VH: QVQLVQSGAEVKKPGSSVKVSCKASGYAFSSHWMNWVRQAPGQGLEWMGRIYPGEGDTNYAQKFRGRVTITADESTSTAYMELSSLRSEDTAVYYCARLLRNQPGASYAMDYWGQGTLVTVSS
VL: GVVMTQTPLSLSVTPGQPASISCRTSRSLVHSNRYTYLHWYLQKPGQSPQLLIYKVSNRRSGVPDRFSGSGSGTDFTLKISRVEAEDVGVYYCSQSTRVPYTFGQGTKLEIK
notes: as for B1
In the case of B4, in experiment [1], the “BW Luc assay plate bound 7.3 nM IgG, FOC” value stood at 6.52 FOC. Besides, the “BW Luc assay soluble 7.3 nM IgG, FOC” value in experiment [1] was 5.95 FOC. Also, the “DC viability (AUC)” value in experiment [2] is 781000 AUC. Also, the “Mac viability (AUC)” value in experiment [2] came out at 57900 AUC. In addition, the Kd in experiment [3] is 1.91 nM; in experiment [5], 0.829 nM; in experiment [6] it was 0.312 nM. The same molecule returned an MFI in experiment [4] of 662 MFI.

B5: AL2p-39 (antibody, V domains shown)
VH: QVQLVQSGAEVKKPGSSVKVSCKASGYAFSSHWMNWVRQAPGQGLEWMGRIYPGGGDTNYAQKFRGRVTITADESTSTAYMELSSLRSEDTAVYYCARLLRNQPGASYAMDYWGQGTLVTVSS
VL: GVVMTQTPLSLSVTPGQPASISCRSSRSLVHSNQYTYLHWYLQKPGQSPQLLIYKVSNRRSGVPDRFSGSGSGTDFTLKISRVEAEDVGVYYCSQSTRVPYTFGQGTKLEIK
notes: as for B1
For B5, in experiment [1], the “BW Luc assay plate bound 7.3 nM IgG, FOC” value amounted to 8.12 FOC and the “BW Luc assay soluble 7.3 nM IgG, FOC” value was determined as 3.81 FOC. In addition, in experiment [2], the “DC viability (AUC)” value came to 851000 AUC and the “Mac viability (AUC)” value turned out to be 66900 AUC. For the same molecule, the Kd in experiment [3] is 1.53 nM. In experiment [4], this molecule had an MFI of 590 MFI. For the same molecule, in experiment [5], the Kd stood at 0.631 nM. The molecule further had a Kd in experiment [6] of 0.346 nM.

B6: AL2p-45 (antibody, V domains shown)
VH: QVQLVQSGAEVKKPGSSVKVSCKASGYAFSSDWMNWVRQAPGQGLEWMGRIYPGEGDTNYARKFQGRVTITADESTSTAYMELSSLRSEDTAVYYCARLLRNKPGESYAMDYWGQGTLVTVSS
VL: DVVMTQTPLSLSVTPGQPASISCRTSQSLVHSNAYTYLHWYLQKPGQSPQLLIYKVSNRVSGVPDRFSGSGSGTDFTLKISRVEAEDVGVYYCSQSTRVPYTFGQGTKLEIK
notes: as for B1
Take B6: the “BW Luc assay plate bound 7.3 nM IgG, FOC” value in experiment [1] came out at 2.29 FOC. Further, the “BW Luc assay soluble 7.3 nM IgG, FOC” value in experiment [1] was 2.38 FOC. Also, the “DC viability (AUC)” value in experiment [2] is 543000 AUC. In addition, the “Mac viability (AUC)” value in experiment [2] was 3680 AUC. Besides, the Kd in experiment [3] is 1.54 nM; in experiment [5], 17.8 nM; in experiment [6], 20.9 nM. Moreover, in experiment [4], the MFI worked out at 318 MFI.

B7: AL2p-44 (antibody, IgG1, V domains shown)
VH: QVQLVQSGAEVKKPGSSVKVSCKASGYAFSSHWMNWVRQAPGQGLEWMGRIYPGGGDTNYARKFRGRVTITADESTSTAYMELSSLRSEDTAVYYCARLLRNQPGASYAMDYWGQGTLVTVSS
VL: GVVMTQTPLSLSVTPGQPASISCRTSRSLVHSNRYTYLHWYLQKPGQSPQLLIYKVSNRRSGVPDRFSGSGSGTDFTLKISRVEAEDVGVYYCSQSTRVPYTFGQGTKLEIK
notes: as for B1
As for B7, in experiment [1], the “BW Luc assay plate bound 7.3 nM IgG, FOC” value was 7.17 FOC and the “BW Luc assay soluble 7.3 nM IgG, FOC” value amounted to 11.5 FOC. Besides, in experiment [2], the “DC viability (AUC)” value amounted to 750000 AUC and the “Mac viability (AUC)” value is 74700 AUC. In experiment [3], this molecule gave a Kd of 4.18 nM. In addition, the MFI in experiment [4] worked out at 1470 MFI. The molecule also had a Kd in experiment [5] of 0.41 nM. The molecule also came in with a Kd in experiment [6] of 0.271 nM.

B8: AL2p-40 (antibody, IgG1, V domains shown)
VH: QVQLVQSGAEVKKPGSSVKVSCKASGYAFSSHWMNWVRQAPGQGLEWMGRIYPGGGDTNYAQKFRGRVTITADESTSTAYMELSSLRSEDTAVYYCARLLRNQPGASYAMDYWGQGTLVTVSS
VL: GVVMTQTPLSLSVTPGQPASISCRTSRSLVHSNRYTYLHWYLQKPGQSPQLLIYKVSNRRSGVPDRFSGSGSGTDFTLKISRVEAEDVGVYYCSQSTRVPYTFGQGTKLEIK
notes: as for B1
On to B8, for which, in experiment [1], the “BW Luc assay plate bound 7.3 nM IgG, FOC” value was determined as 8.49 FOC and the “BW Luc assay soluble 7.3 nM IgG, FOC” value amounted to 9.92 FOC. Besides, in experiment [2], the “DC viability (AUC)” value was 825000 AUC and the “Mac viability (AUC)” value was determined as 63200 AUC. Also, binding in experiment [3] was characterised by a dissociation constant (Kd) of 2.27 nM. Moreover, the MFI in experiment [4] amounted to 547 MFI. In experiment [5], this molecule returned a Kd of 0.602 nM. In experiment [6], this molecule registered an equilibrium dissociation constant (Kd) of 0.37 nM.

B9: AL2p-46 (antibody, V domains shown)
VH: QVQLVQSGAEVKKPGSSVKVSCKASGYAFSSDWMNWVRQAPGQGLEWMGRIYPGEGDTNYARKFQGRVTITADESTSTAYMELSSLRSEDTAVYYCARLLRNKPGESYAMDYWGQGTLVTVSS
VL: DVVMTQTPLSLSVTPGQPASISCRTSQSLVHSNQYTYLHWYLQKPGQSPQLLIYKVSNRVSGVPDRFSGSGSGTDFTLKISRVEAEDVGVYYCSQSTRVPYTFGQGTKLEIK
notes: as for B1
As for B9, in experiment [1], the “BW Luc assay plate bound 7.3 nM IgG, FOC” value was determined as 1.64 FOC. For the same molecule, the “BW Luc assay soluble 7.3 nM IgG, FOC” value in experiment [1] is 2.98 FOC. The “DC viability (AUC)” value in experiment [2] was determined as 597000 AUC. Further, the “Mac viability (AUC)” value in experiment [2] was 6040 AUC. The Kd in experiment [3] was 1.33 nM; in experiment [5], 13 nM; in experiment [6], 16.1 nM. In experiment [4], this molecule came in with an MFI of 187 MFI.
